This is an account of results in patent EP4725969A1 (Latticon (Suzhou) Biopharmaceuticals Co., Ltd., dated 2024).

Experiment [1] addresses T1, recombinant human HER2 extracellular domain protein (human, UniProt P04626 23-652).
T1 construct: range 23-652; Range is printed for the immunogen/panning protein; also called ErbB2; recombinant HER2 protein
Kind of experiment: BLI (ForteBio).

Experiment [2] has as its target T1, recombinant human HER2 extracellular …. The experiment can be described thus: BLI, Protein A capture. For orientation: Biolayer interferometry detects binding as a change in optical thickness at a sensor tip.
For experiment [3] the target is unchanged. Kind of experiment: BLI, Protein A capture. The source holds these as a separate data set.
Experiment [4] has the same target. Kind of experiment: BLI, Protein A capture. The source holds these as a separate data set.
Experiment [5] has as its target T2, human HER2 expressed on tumor cells (human, UniProt P04626 23-1255).
T2 construct: whole, on cells; Cell line is named in each row's assay
The experiment can be described thus: flow cytometry, BT474 cells. For orientation: In flow cytometry, cells or beads pass a laser one at a time.

Experiment [6] deals with T2, human HER2 expressed on tumor cells. The experiment can be described thus: flow cytometry, RT-112 cells.

B1: Mu2117KH (Fc fusion)
scFv: DVVLTQTPLSLPVSLGDQASISCRSSQSLVHSNGNTYLHWYLQKPGQSPKLLIYKVSNRFSGVPDRFSGSGSGTDFTLKISRVEAEDLGVYFCSQSTHVPYTFGGGTKLEIKGGGGSGGGGSGGGGSEVKIEESGGGLVKPGGSLKLSCAASGFTYSSYGMSWVRQTPEKRLEWVASISGGGSYTKYPDSVKGRFTISRDNAKNHLYLQMSSLRSEDTALYYCARDYAGFFDVWGAGTTVTVSS
notes: scFv-hIgG1 Fc fusion of mAb2117 V regions, VL-(G4S)3-VH; also called chimeric single-chain antibody control; not shown: human IgG1 Fc
By Kd is commonly meant the equilibrium constant for the complex coming apart. For orientation: koff means the rate constant with which the complex falls apart. As usually defined, the kon is the rate constant with which the complex forms. With B1, in experiment [1], the Kd stood at 77.2 nM, the koff is 0.00545 s⁻¹ and the kon is 70600 M⁻¹ s⁻¹.

B2: Hu2126-H1K1 (antibody, human IgG1, V domains shown)
VH: QVQLQESGPGLVKPSETLSLTCTASGYTFTDYSMHWVRQPPGKGLEWMGWINTETGEPTYADDFKGRFTFSLDTSKNQASLKLSSVTAADTAVYFCVRVGRYDYAMDYWGQGTTVTVSS
VL: DIQMTQSPSSLSASVGDRVTITCKASQDVYTAVAWYQQKPGKAPKLLINSASYRYTGVPSRFSGSGSGTDFTLTISSLQPEDFATYYCQQHYSTPPTFGGGTKVEIK
For B2, in experiment [2], the equilibrium dissociation constant (Kd) was determined as 19.1 nM, the koff was 0.0018 s⁻¹ and the kon was determined as 94500 M⁻¹ s⁻¹.

B3: Hu2126-H2K1 (antibody, human IgG1, V domains shown)
VH: QVQLVQSGSELKKPGASVKVSCKASGYTFTDYSMHWVRQAPGQGLEWMGWINTETGEPTYADDFKGRFVFSLDTSVSTAYLQISSLKAEDTAVYFCVRVGRYDYAMDYWGQGTTVTVSS
VL: DIQMTQSPSSLSASVGDRVTITCKASQDVYTAVAWYQQKPGKAPKLLINSASYRYTGVPSRFSGSGSGTDFTLTISSLQPEDFATYYCQQHYSTPPTFGGGTKVEIK
As to B3, in experiment [2], the Kd stood at 6.89 nM, the koff is 0.000581 s⁻¹ and the kon was found to be 84300 M⁻¹ s⁻¹. In experiment [3], the Kd was 4.71 nM, the off-rate (koff) worked out at 0.000469 s⁻¹ and the kon is 99600 M⁻¹ s⁻¹.

B4: Hu2126-H2K1-L71-H72b-Mu17 (antibody, IgG1, V domains shown)
VH: QVQLVQSGSELKKPGASVKVSCKASGYTFTDYSMHWVRQAPGQGLEWMGWINTGTGEPTYADDFKGRFTISRDTSKSTAYLQISSLKAEDTAVYYCVRVGRYDYAMDYWGQGTTVTVSS
VL: DIQMTQSPSSLSASVGDRVTITCRASQDVYTAVAWYQQKPGKAPKLLINSASSRPTGVPSRFSGSGSGTDFTLTISSLQPEDFATYYCQQYYSTPPTFGGGTKVEIK
notes: IgG1/Cκ; also called 7172b-Mu17
On to B4, for which, in experiment [4], the Kd was found to be 2.8 nM, the koff amounted to 0.000276 s⁻¹ and the kon came out at 98500 M⁻¹ s⁻¹.

B5: Hu2126-H2K1-L71-H72b-Mu16 (antibody, IgG1, V domains shown)
VH: QVQLVQSGSELKKPGASVKVSCKASGYTFTDYSMHWVRQAPGQGLEWMGWINTGTGEPTYADDFKGRFTISRDTSKSTAYLQISSLKAEDTAVYYCVRVGRYDYAMDYWGQGTTVTVSS
VL: DIQMTQSPSSLSASVGDRVTITCRASQDVYTAVAWYQQKPGKAPKLLINRASSRPTGVPSRFSGSGSGTDFTLTISSLQPEDFATYYCQQYYSTPPTFGGGTKVEIK
notes: IgG1/Cκ; also called 7172b-Mu16
Regarding B5, in experiment [4], the Kd worked out at 5.77 nM, the koff amounted to 0.000578 s⁻¹ and the kon amounted to 100000 M⁻¹ s⁻¹.

B6: Hu2126-H2K1-L71-H72b-Mu18 (antibody, IgG1, V domains shown)
VH: QVQLVQSGSELKKPGASVKVSCKASGYTFTDYSMHWVRQAPGQGLEWMGWINTGTGEPTYADDFKGRFTISRDTSKSTAYLQISSLKAEDTAVYYCVRVGRYDYAMDYWGQGTTVTVSS
VL: DIQMTQSPSSLSASVGDRVTITCRASQDVYTAVAWYQQKPGKAPKLLINWASSRPTGVPSRFSGSGSGTDFTLTISSLQPEDFATYYCQQYYSTPPTFGGGTKVEIK
notes: IgG1/Cκ; also called 7172b-Mu18
As for B6, in experiment [4], the Kd was found to be 7.96 nM and the kon turned out to be 124000 M⁻¹ s⁻¹.

B7: Hu2126-H2K1-L71-H72b-Mu14 (antibody, IgG1, V domains shown)
VH: QVQLVQSGSELKKPGASVKVSCKASGYTFTDYSMHWVRQAPGQGLEWMGWINTGTGEPTYADDFKGRFTISRDTSKSTAYLQISSLKAEDTAVYYCVRVGRYDYAMDYWGQGTTVTVSS
VL: DIQMTQSPSSLSASVGDRVTITCRASQDVYTAVAWYQQKPGKAPKLLINLASSRPTGVPSRFSGSGSGTDFTLTISSLQPEDFATYYCQQYYSTPPTFGGGTKVEIK
notes: IgG1/Cκ; also called 7172b-Mu14; Hu2126-7172b-Mu14
In the case of B7, in experiment [4], the Kd was determined as 0.825 nM, the koff was determined as 8.31e-05 s⁻¹ and the kon turned out to be 101000 M⁻¹ s⁻¹.

B8: Hu2126-H2K1-L71-H72b-Mu15 (antibody, IgG1, V domains shown)
VH: QVQLVQSGSELKKPGASVKVSCKASGYTFTDYSMHWVRQAPGQGLEWMGWINTGTGEPTYADDFKGRFTISRDTSKSTAYLQISSLKAEDTAVYYCVRVGRYDYAMDYWGQGTTVTVSS
VL: DIQMTQSPSSLSASVGDRVTITCRASQDVYTAVAWYQQKPGKAPKLLINQASSRPTGVPSRFSGSGSGTDFTLTISSLQPEDFATYYCQQYYSTPPTFGGGTKVEIK
notes: IgG1/Cκ; also called 7172b-Mu15
For B8, in experiment [4], the Kd came to 4.49 nM and the kon was 106000 M⁻¹ s⁻¹.

B9: Hu2126-H2K1-L71-H72b-Mu19 (antibody, IgG1, V domains shown)
VH: QVQLVQSGSELKKPGASVKVSCKASGYTFTDYSMHWVRQAPGQGLEWMGWINTGTGEPTYADDFKGRFTISRDTSKSTAYLQISSLKAEDTAVYYCVRVGRYDYAMDYWGQGTTVTVSS
VL: DIQMTQSPSSLSASVGDRVTITCRASQDVYTAVAWYQQKPGKAPKLLINYASSRPTGVPSRFSGSGSGTDFTLTISSLQPEDFATYYCQQYYSTPPTFGGGTKVEIK
notes: IgG1/Cκ; also called 7172b-Mu19
Turning to B9, in experiment [4], the Kd came out at 2.9 nM, the koff is 0.000314 s⁻¹ and the kon stood at 108000 M⁻¹ s⁻¹.

B10: Mu2117HK (Fc fusion)
scFv: EVKIEESGGGLVKPGGSLKLSCAASGFTYSSYGMSWVRQTPEKRLEWVASISGGGSYTKYPDSVKGRFTISRDNAKNHLYLQMSSLRSEDTALYYCARDYAGFFDVWGAGTTVTVSSGGGGSGGGGSGGGGSDVVLTQTPLSLPVSLGDQASISCRSSQSLVHSNGNTYLHWYLQKPGQSPKLLIYKVSNRFSGVPDRFSGSGSGTDFTLKISRVEAEDLGVYFCSQSTHVPYTFGGGTKLEIK
notes: scFv-hIgG1 Fc fusion of mAb2117 V regions, VH-(G4S)3-VL; also called chimeric single-chain antibody control; not shown: human IgG1 Fc
On to B10, for which, in experiment [1], the Kd stood at 76 nM, the koff was found to be 0.00523 s⁻¹ and the kon was 68800 M⁻¹ s⁻¹.

B11: Hu2117-HK203 (Fc fusion)
scFv: EVQLVESGGGLVQPGGSLRLSCAASGFTYSSYGMSWVRQAPGKGLEWVASISGGGNYAKYVDSVKGRFTISRDNSKNTLYLQMNSLRAEDTAVYYCARDYVGFFDVWGQGTLVTVSSGGGGSGGGGSGGGGSDIQMTQSPSSLSASVGDRVTITCRSSQSLVHSNRNTYLHWYQQKPGKAPKLLIYKVSNRFSGVPSRFSGSGSGTDFTLTISSLQPEDFATYFCSQSTHVPYTFGQGTKVEIK
notes: scFv-hIgG1 Fc; not shown: human IgG1 Fc
As usually defined, the EC50 is the concentration at which the effect is half-maximal. A lower EC50 goes with a more potent agent. Turning to B11, the results for the EC50 in experiment [5] and in experiment [6] were 0.102 µg/mL and 0.144 µg/mL, respectively.

B12: Hu2117-HK303 (Fc fusion)
scFv: EVQLVESGGGLVQPGGSLRLSCAASGFTYSSYGMSWVRQAPGKGLEWVASISGGGNYAKYVESVKGRFTISRDNSKNTLYLQMNSLRAEDTAVYYCARDYVGFFDVWGQGTLVTVSSGGGGSGGGGSGGGGSDIQMTQSPSSLSASVGDRVTITCRSSQSLVHSNRNTYLHWYQQKPGKAPKLLIYKVSNRFSGVPSRFSGSGSGTDFTLTISSLQPEDFATYFCSQSTHVPYTFGQGTKVEIK
notes: as for B11
Take B12: the EC50 in experiment [5] was 0.101 µg/mL; in experiment [6], 0.129 µg/mL.

B13: Hu2117KH (Fc fusion)
scFv: DIQMTQSPSSLSASVGDRVTITCRSSQSLVHSNGNTYLHWYQQKPGKAPKLLIYKVSNRFSGVPSRFSGSGSGTDFTLTISSLQPEDFATYFCSQSTHVPYTFGQGTKVEIKGGGGSGGGGSGGGGSEVQLVESGGGLVQPGGSLRLSCAASGFTYSSYGMSWVRQAPGKGLEWVASISGGGSYTKYPDSVKGRFTISRDNSKNTLYLQMNSLRAEDTAVYYCARDYAGFFDVWGQGTLVTVSS
notes: not shown: human IgG1 Fc
In the case of B13, in experiment [1], the Kd worked out at 147 nM, the koff turned out to be 0.00381 s⁻¹ and the kon is 25900 M⁻¹ s⁻¹.
